Data published in patent US10500249B2, “Compositions and methods for preventing or treating diseases, conditions, or processes characterized by aberrant fibroblast proliferation and extracellular matrix deposition” (MOERAE MATRIX, INC., priority 2014, dated 2019).

What was measured:
Assay in all cases: Kinase Profiling Assay
Assay type in all cases: biochemical
Conditions in all cases: 100 μM
BRK (h) = BRK (h) (Homo sapiens, UniProt Q13882)
Summary of the method: (§1)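 Measured twice per kinase, activity in presence of MK2 inhibitory peptide was calculated against a 100% activity control after radiometric phosphorylation of a cationic substrate, anionic filter capture and scintillation counting; one of 266 human kinases profiled for specificity.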

CDK5/p35 (h) = molecular target: T1, CDK5/p35 (h) (Homo sapiens, UniProt Q00535)
T1 construct: purchased Millipore
Summary of the method: as §1

ErbB4 (h) = ErbB4 (h) (Homo sapiens, UniProt Q15303)
Summary of the method: as §1

GRK7 (h) = molecular target: T2, GRK7 (h) (Homo sapiens, UniProt Q8WTQ7)
T2 construct: purchased Millipore
T2 sequence (Q8WTQ7 1-553): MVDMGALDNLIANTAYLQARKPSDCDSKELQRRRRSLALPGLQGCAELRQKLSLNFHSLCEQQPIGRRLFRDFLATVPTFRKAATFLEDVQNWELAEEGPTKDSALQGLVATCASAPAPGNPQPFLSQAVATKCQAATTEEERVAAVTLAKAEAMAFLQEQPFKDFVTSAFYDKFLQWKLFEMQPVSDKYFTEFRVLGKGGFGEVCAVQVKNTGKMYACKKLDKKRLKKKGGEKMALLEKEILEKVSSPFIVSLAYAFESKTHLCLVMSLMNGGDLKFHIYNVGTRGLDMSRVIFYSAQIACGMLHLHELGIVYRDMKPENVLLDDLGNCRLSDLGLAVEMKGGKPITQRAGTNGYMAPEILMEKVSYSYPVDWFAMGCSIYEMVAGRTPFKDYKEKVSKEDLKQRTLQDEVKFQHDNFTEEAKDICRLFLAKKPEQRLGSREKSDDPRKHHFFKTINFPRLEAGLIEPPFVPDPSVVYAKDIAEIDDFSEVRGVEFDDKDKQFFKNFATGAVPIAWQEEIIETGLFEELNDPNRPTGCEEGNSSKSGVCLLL
Summary of the method: as §1

MSSK1 (h) = molecular target: T3, MSSK1 (h) (Homo sapiens, UniProt Q9UPE1)
T3 construct: purchased Millipore
Summary of the method: as §1

Met(D1246N) (h) = Met(D1246N) (h) (Homo sapiens, UniProt P08581, D1228N)
Summary of the method: as §1

NEK11 (h) = molecular target: T4, NEK11 (h) (Homo sapiens, UniProt Q8NG66)
T4 construct: purchased Millipore
T4 sequence (Q8NG66 1-645): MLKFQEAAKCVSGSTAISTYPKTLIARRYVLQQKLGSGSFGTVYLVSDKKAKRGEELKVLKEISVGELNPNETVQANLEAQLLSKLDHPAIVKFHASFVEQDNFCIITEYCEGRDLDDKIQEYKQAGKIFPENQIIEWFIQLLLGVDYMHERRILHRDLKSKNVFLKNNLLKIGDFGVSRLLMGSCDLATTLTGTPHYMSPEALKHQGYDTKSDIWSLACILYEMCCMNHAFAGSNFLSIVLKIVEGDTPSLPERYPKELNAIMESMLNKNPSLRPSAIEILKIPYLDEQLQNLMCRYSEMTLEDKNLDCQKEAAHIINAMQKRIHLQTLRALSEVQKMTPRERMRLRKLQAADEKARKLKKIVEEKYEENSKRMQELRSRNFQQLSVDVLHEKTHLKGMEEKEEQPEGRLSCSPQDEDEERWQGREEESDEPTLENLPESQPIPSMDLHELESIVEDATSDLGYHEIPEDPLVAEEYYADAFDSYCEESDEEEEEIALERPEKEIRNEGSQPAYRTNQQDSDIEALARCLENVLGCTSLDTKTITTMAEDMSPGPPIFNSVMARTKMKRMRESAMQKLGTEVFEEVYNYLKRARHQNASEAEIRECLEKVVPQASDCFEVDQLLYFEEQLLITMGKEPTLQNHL
Summary of the method: as §1

PAK4 (h) = molecular target: T5, PAK4 (h) (Homo sapiens, UniProt O96013)
T5 construct: purchased Millipore
Summary of the method: as §1

Pyk2 (h) = Pyk2 (h) (Homo sapiens, UniProt Q14289)
Summary of the method: as §1

EphA3 (h) = molecular target: T6, EphA3 (h) (Homo sapiens, UniProt P29320)
T6 construct: purchased Millipore
T6 sequence (P29320 21-983): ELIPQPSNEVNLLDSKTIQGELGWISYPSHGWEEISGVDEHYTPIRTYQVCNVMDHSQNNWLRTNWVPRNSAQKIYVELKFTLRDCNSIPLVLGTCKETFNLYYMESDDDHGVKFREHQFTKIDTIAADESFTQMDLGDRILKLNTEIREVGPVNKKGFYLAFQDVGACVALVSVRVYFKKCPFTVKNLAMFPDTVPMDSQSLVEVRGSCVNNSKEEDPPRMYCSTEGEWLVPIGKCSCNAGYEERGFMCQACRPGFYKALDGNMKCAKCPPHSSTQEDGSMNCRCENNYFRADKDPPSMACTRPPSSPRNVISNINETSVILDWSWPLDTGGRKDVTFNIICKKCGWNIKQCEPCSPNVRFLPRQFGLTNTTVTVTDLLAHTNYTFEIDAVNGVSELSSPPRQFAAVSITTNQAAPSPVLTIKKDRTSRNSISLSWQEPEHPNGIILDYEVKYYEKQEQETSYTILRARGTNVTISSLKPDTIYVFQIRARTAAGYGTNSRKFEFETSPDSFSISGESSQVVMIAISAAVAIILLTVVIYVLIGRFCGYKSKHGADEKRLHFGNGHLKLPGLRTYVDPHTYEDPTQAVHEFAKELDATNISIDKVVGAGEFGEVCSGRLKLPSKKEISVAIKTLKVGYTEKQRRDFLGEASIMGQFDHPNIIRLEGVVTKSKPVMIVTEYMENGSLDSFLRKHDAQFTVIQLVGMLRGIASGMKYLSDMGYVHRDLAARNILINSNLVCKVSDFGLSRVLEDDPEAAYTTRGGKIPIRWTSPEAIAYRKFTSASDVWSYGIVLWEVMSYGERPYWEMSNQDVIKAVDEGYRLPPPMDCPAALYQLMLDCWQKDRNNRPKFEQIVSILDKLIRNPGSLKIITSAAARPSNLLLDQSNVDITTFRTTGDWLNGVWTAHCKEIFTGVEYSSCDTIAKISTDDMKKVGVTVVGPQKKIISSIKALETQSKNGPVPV
Summary of the method: as §1

HIPK1 (h) = molecular target: T7, HIPK1 (h) (Homo sapiens, UniProt Q86Z02)
T7 construct: purchased Millipore
Summary of the method: as §1

T7 sequence (Q86Z02 whole entry): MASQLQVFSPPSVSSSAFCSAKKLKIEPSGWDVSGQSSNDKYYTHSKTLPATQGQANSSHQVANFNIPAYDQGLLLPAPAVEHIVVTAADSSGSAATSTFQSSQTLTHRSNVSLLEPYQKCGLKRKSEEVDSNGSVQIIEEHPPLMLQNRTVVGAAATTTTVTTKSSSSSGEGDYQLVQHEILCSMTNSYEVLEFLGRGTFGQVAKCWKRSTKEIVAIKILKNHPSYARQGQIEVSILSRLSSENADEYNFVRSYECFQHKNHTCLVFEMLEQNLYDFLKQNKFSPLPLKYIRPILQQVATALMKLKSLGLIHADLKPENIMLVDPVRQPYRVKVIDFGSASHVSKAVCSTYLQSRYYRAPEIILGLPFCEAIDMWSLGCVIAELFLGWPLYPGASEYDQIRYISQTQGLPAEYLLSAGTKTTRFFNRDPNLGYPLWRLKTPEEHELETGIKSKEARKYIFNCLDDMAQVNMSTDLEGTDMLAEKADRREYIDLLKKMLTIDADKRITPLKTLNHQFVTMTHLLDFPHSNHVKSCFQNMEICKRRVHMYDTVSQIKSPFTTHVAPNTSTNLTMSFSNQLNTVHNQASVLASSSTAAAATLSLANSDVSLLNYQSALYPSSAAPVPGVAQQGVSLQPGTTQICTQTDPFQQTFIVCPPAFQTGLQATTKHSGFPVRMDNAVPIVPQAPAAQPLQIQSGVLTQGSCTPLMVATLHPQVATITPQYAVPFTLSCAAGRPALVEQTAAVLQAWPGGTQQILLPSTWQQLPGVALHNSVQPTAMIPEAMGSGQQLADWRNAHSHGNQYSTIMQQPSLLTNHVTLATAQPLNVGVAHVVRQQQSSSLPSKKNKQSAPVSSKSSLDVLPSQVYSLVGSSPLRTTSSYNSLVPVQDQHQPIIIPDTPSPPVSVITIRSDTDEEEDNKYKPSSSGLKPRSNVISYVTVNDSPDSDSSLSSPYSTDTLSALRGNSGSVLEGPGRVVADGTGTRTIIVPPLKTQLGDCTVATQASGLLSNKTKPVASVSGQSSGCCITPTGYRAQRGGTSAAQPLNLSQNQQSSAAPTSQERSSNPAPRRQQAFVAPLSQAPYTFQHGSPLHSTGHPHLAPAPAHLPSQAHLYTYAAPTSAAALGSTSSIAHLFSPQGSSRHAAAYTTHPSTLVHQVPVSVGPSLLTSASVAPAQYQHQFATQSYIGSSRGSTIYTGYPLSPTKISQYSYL
T1 sequence (Q00535 whole entry): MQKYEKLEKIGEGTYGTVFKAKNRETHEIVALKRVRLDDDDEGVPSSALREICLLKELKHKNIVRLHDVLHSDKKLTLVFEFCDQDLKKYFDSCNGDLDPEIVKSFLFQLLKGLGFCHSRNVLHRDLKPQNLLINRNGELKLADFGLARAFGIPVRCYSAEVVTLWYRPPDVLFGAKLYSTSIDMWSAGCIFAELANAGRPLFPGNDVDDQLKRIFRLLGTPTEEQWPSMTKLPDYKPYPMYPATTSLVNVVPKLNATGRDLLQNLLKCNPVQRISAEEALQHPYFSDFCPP
T1 sequence (Q15078 2-307 partner limits assumed): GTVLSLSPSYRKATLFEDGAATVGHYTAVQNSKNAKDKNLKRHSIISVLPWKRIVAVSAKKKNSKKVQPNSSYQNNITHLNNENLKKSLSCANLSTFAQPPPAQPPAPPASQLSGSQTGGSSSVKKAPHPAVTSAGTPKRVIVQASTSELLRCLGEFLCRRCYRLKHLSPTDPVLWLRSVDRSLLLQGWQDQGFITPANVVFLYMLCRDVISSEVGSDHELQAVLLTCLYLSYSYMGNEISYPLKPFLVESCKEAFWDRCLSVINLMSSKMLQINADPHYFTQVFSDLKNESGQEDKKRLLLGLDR
T5 sequence (O96013 whole entry): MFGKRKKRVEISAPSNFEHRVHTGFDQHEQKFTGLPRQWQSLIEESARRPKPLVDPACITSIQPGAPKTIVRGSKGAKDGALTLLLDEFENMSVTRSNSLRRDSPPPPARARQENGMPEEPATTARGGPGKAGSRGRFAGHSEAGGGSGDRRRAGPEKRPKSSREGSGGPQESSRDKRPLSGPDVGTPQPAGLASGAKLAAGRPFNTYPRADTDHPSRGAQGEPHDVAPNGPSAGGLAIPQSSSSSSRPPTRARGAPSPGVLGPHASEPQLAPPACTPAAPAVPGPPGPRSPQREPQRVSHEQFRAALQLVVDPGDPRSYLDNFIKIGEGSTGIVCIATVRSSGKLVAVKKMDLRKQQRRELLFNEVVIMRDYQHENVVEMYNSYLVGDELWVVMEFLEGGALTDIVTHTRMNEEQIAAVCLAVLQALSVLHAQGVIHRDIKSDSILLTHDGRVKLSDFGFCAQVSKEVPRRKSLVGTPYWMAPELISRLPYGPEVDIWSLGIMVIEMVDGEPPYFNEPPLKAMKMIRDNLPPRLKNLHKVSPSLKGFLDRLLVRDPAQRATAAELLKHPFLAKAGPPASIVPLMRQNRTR
Chain of ErbB4 (h) (Q15303 26-1308): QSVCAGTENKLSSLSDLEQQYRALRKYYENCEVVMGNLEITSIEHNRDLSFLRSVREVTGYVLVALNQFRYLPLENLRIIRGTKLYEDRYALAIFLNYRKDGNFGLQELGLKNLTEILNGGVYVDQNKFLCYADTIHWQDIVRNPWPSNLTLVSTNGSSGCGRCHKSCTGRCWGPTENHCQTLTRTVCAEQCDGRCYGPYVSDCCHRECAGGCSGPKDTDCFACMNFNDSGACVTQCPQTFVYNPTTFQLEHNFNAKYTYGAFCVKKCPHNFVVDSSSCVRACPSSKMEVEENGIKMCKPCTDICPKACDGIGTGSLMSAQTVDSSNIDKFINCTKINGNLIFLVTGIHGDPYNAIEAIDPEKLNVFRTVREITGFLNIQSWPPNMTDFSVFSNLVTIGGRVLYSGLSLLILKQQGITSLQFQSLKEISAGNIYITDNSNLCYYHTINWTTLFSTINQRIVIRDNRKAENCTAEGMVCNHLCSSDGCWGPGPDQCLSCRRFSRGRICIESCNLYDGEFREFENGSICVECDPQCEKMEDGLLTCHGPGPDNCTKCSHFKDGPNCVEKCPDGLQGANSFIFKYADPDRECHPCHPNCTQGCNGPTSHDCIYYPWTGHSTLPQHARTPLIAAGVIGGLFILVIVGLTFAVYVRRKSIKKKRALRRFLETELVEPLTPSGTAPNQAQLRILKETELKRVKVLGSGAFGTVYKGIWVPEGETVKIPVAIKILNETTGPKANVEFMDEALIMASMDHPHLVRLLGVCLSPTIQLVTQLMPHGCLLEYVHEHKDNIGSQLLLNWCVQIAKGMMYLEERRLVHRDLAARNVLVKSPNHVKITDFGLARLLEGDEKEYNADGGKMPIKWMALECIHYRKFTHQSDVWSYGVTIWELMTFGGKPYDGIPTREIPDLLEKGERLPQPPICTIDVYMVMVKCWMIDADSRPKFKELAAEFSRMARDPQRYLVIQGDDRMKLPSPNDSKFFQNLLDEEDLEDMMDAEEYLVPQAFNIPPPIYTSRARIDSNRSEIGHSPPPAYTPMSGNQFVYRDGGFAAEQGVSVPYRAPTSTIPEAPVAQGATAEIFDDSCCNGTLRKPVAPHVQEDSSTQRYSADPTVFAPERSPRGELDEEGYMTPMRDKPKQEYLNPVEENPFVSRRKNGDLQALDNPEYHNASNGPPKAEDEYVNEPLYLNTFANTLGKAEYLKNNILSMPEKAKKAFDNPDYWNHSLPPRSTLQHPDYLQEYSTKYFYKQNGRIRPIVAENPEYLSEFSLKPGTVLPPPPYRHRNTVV
T3 sequence (Q9UPE1 whole entry): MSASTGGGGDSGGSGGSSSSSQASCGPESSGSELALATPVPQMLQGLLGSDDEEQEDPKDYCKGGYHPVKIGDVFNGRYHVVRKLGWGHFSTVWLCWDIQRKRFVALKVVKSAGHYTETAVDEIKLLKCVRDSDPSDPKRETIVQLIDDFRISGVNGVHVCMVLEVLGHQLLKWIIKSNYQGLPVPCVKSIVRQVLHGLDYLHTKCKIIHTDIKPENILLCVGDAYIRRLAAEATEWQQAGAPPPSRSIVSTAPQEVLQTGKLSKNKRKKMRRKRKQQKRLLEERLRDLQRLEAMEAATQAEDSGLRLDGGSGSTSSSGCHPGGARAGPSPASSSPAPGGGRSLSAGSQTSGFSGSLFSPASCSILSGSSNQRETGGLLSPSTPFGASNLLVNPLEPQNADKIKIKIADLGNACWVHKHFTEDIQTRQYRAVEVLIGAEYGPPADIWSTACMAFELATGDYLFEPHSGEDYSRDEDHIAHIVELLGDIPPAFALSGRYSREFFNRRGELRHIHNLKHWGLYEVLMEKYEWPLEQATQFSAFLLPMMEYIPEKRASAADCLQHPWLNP
Chain of BRK (h) (Q13882 whole entry): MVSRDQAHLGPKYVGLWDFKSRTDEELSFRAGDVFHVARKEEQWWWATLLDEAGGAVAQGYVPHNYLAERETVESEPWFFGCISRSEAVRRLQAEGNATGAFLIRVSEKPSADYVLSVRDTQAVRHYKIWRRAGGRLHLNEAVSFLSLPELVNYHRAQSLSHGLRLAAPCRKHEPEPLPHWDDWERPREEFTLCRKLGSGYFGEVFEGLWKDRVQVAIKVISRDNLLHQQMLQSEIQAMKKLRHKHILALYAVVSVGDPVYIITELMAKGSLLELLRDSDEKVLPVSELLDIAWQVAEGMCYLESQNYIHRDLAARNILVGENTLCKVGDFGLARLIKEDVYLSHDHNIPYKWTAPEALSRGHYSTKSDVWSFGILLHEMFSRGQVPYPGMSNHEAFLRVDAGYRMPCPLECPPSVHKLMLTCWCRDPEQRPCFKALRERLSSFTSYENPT

Sequence	% activity (BRK (h)) [%]	% activity (CDK5/p35 (h)) [%]	% activity (ErbB4 (h)) [%]	% activity (GRK7 (h)) [%]	% activity (MSSK1 (h)) [%]	% activity (Met(D1246N) (h)) [%]	% activity (NEK11 (h)) [%]	% activity (PAK4 (h)) [%]	% activity (Pyk2 (h)) [%]	% activity (EphA3 (h)) [%]	% activity (HIPK1 (h)) [%]
YARAAARQARAKALNRQLGVA (Mammalian) [MMI-0200]	127	92	82	124	100	149	95	98	127	–	–
HRRIKAWLKKIKALARQLGVAA (Mammalian) [MMI-0500]	41	59	2	93	22	90	2	86	46	33	47
FAKLAARLYRKALARQLGVAA [MMI-0300]	35	79	40	122	77	82	53	94	47	6	74
KAFAKLAARLYRKALARQLGVAA [MMI-0400]	18	76	0	100	75	31	33	89	34	12	91
